Biological target: T1, recombinant human Fc(gamma)RI, biotinylated (R&D Systems) (human, UniProt P12314 16-288)
T1 construct: also called rhFc(gamma) receptor I; Fc(gamma) Receptor I
Experiment: ELISA pH 7.4; insulin-Fc coated, biotinylated rhFc(gamma)RI titrated (Example 51)

T1 sequence (P12314 16-288 limits assumed): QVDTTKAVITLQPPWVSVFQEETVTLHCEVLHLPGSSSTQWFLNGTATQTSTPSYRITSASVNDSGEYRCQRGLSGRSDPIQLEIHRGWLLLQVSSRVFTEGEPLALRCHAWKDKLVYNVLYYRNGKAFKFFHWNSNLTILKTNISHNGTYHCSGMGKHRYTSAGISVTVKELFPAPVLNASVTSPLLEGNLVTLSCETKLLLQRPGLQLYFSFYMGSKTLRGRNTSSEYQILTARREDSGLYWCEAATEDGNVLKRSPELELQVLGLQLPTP

B1: insulin-Fc fusion protein of SEQ ID NO: 29 (Fc fusion)
chain: FVNQHLCGSHLVEALELVCGERGFHYGGGGGGSGGGGGIVEQCCTSTCSLDQLENYCGGGGGQGGGGQGGGGQGGGGGDCPKCPAPEMLGGPSVFIFPPKPKDTLLIARTPEVTCVVVDLDPEDPEVQISWFVDGKQMQTAKTQPREEQFNGTYRVVSVLPIGHQDWLKGKQFTCKVNNKALPSPIERTISKARGQAHQPSVYVLPPSREELSKNTVSLTCLIKDFFPPDIDVEWQSNGQQEPESKYRTTPPQLDEDGSYFLYSKLSVDKSRWQRGDTFICAVMHEALHNHYTQESLSHSPG
- binding result: binds

— patent US20260000752A1 (AKSTON BIOSCIENCES, published 2026)
